Earlier results, collected in patent US9180102B2, “Methods for fabricating nano and microparticles for drug delivery” (BOARD OF REGENTS, THE UNIVERSITY OF TEXAS SYSTEM, priority 2005, dated 2015).

Molecular target: Cathepsin B (Homo sapiens, UniProt P07858)
Conditions: degradation of peptide spacer by lysosomal protease

Gly-Phe-Leu-Gly (GFLG; printed: Gly-Phe-Leu-Gly)
sensitivity of peptide spacer sequence to Cathepsin B: especially sensitive
